These results are taken from the supplement of paper PMC10567573.

± gives the standard deviation.

The data set can be described thus: protein stability index of a GFP-peptide fusion (GPS, HEK-293T) (PSI 1-6); higher = more stable.
Setting [1] is: treatment: DMSO, c terminus: a fixed tail appended.
[2] abbreviates: treatment: MLN4924 1 uM, 8 h, c terminus: a fixed tail appended.
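Further: 24-mer peptide tiles fused after GFP, lentivirally expressed, FACS-sorted into six equal bins by GFP/DsRed ratio, decoded by Illumina sequencing, PSI is the read-weighted mean bin number.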

Consider VLYPDGQAQMIHPKPADFRNPGPG [INTS4], for which the protein stability index runs as follows: under setting [1], 3.59 ± 0.098; under setting [2], 3.67 ± 0.3.
The sequence VNADIEKVNQNQAKRCTVIGGSGF [NSDHL] showed a protein stability index under setting [1] of 3.79 ± 0.2 and a protein stability index under setting [2] of 3.87 ± 0.19.
With VNPAYPESRYTSDYFISYGIEHAQ [ETS1], the protein stability index runs as follows: under setting [1], 2.8 ± 0.51; under setting [2], 2.8 ± 0.4.
As for VNVEMDAAPGVDLTRVLAEMREQY [KRT15], the protein stability index runs as follows: under setting [1], 3.13 ± 0.42; under setting [2], 3.27 ± 0.31.
For VNVPGSFVCQCYSGYALAEDGKRC [MATN2] the same measures were 2.75 ± 0.42 and 3.05 ± 0.46.
For VPFDIFTEEVKFYQLGEEALLKFR [KCNA4] the same measures were 2.32 ± 0.36 and 2.54 ± 0.19.
On the same counts, the results for VPIDIFSEEIRFYQLGEEAMEKFR [KCNA3] are 3.14 ± 0.28 and 3.23 ± 0.18.
As to VPQDPDLEEEEEEEDLVLTCEDDE [ZBTB22], the protein stability index by setting is: under setting [1], 5.59 ± 0.22; under setting [2], 5.64 ± 0.25.
For VQADQERERQRRLEVEREAEKKRE [LRRC59] the same measures were 5.52 ± 0.093 and 5.64 ± 0.17.
On the same counts, the results for VQAPSYGARPVSSAASVYAGAGGS [KRT18] are 3.91 ± 0.081 and 3.82 ± 0.69.
On the same counts, the results for VQDMGQEDMLLPLAWRIVNDTYRT [CCNC] are 2.37 ± 0.21 and 2.57 ± 0.43.
As for VRDQISHCTVKLRQTTGLMEYCLE [TRIM9], the protein stability index under setting [1] was determined as 2.59 ± 0.31 and the protein stability index under setting [2] stood at 2.65 ± 0.36.
Take VRVRQDSGAEGHSHSCYHDTRSGF [TRIM35]: the protein stability index is 3.51 ± 0.25 under setting [1] and 3.62 ± 0.31 under setting [2].
With VSFEDPEFKSSFSQSFSLYVKYQV [ATE1], the protein stability index is 2.99 ± 0.81 under setting [1] and 2.51 ± 0.61 under setting [2].
For VSGSPVTQNHAASALPTGSPKRGT [FBF1] the same measures were 5.27 ± 0.16 and 5.22 ± 0.25.
For VSKELRMYDEKAHEWKSLAPMDAP [KLHL13] the same measures were 3.73 ± 0.36 and 4.04 ± 0.11.
As to VTSQQEPQIPVDRGSETTYESSAD [TAF7L], the protein stability index is 5.21 ± 0.25 under setting [1] and 5.52 ± 0.23 under setting [2].
Consider VVLDMEEGTLGYAIGGTYLGPAFR [SPSB2], for which the protein stability index is 2.37 ± 0.24 under setting [1] and 2.19 ± 0.074 under setting [2].
On the same counts, the results for VVQTLYPFSSVTEEELNFEKGETM [NCK2] are 3.66 ± 0.17 and 3.77 ± 0.29.
On the same counts, the results for WASRREAFAQRPSSAPDLMCLSPD [CDC25B] are 3.85 ± 0.21 and 4.07 ± 0.2.
On the same counts, the results for WENRHEGVFKFLRSEAVAQLWGQK [ELF3] are 2.43 ± 0.32 and 2.67 ± 0.35.
As for WFPPAIMGVVSLVFLIIYYLDPSV [ARL6IP1], the protein stability index runs as follows: under setting [1], 2.52 ± 0.46; under setting [2], 3.28 ± 0.64.
Take WGVVSHSFPATLETQEQDVDLVQK [MMP1]: the protein stability index by setting is: under setting [1], 4.58 ± 0.34; under setting [2], 4.73 ± 0.43.
The sequence WHTIAPMGTRRKHLGCAVYQDMIY [KLHL20] returned a protein stability index under setting [2] of 1.93 ± 0.96.
Consider WIFVNLTVRFCILGKESFYDTFHT [HACD3], for which the protein stability index turned out to be 3.29 ± 0.26 under setting [1] and 3.05 ± 0.12 under setting [2].
For WLVHRDPEGSVSGSQPNSGLALES [NFE2L1] the same measures were 3.78 ± 0.31 and 3.97 ± 0.12.
Turning to WNDCISSGLRGGILIELAMRGRIY [GOLPH3L], the protein stability index is 2.89 ± 0.45 under setting [1] and 2.48 ± 0.53 under setting [2].
Take WPKLCPCLRSGIGSSQALGPSPPL [MYCL]: the protein stability index was 2.46 ± 0.41 under setting [1] and 2.47 ± 0.14 under setting [2].
WQQQSYLDSGIHSGATTTAPSLSG [CTNNB1] returned a protein stability index under setting [1] of 3.71 ± 0.1 and a protein stability index under setting [2] of 3.78 ± 0.33.
For WRWQLYAAQSTKSPWNFLGDELYE [CLPTM1] the same measures were 2.79 ± 0.38 and 2.39 ± 0.3.
For WTHVTLLIVVTQSHLVIHNLFEGM [CDS2], the protein stability index is, setting by setting: under setting [1], 3.22 ± 0.23; under setting [2], 3.34 ± 0.35.
On the same counts, the results for WYWHGDVNSNKVVMSGVKCSGTEL [LOXL2] are 2.68 ± 0.53 and 2.75 ± 0.28.
In the case of YAIVRRPTVGIGGDRLQFNQLSQA [EFHC1], the protein stability index was 2.06 ± 0.21 under setting [1] and 2.5 ± 0.19 under setting [2].
YARTPTLDPDTMHARLRLSADRLT [TRIM14]: the protein stability index reads like this: under setting [1], 2.91 ± 0.17; under setting [2], 3.27 ± 0.33.
On the same counts, the results for YDQQIWEKSIEQTQIKGLKNKPKK [PHTF1] are 4.9 ± 0.093 and 5.17 ± 0.083.
YDRVAQLDQLLHYRKKSAEFPDFY [CHGB]: the protein stability index runs as follows: under setting [1], 2.72 ± 0.14; under setting [2], 2.8 ± 0.21.
For YGKDIVKACSLLDVAVHMPCLGHT [ZBED1] the same measures were 2.14 ± 0.3 and 2.29 ± 0.33.
On the same counts, the results for YGPLKPLPQTPHLEEDLKEVLRSE [MYBL2] are 5 ± 0.19 and 4.95 ± 0.24.
On the same counts, the results for YHTGKTPFVCPECGQPCSQKSGLI [ZNF649] are 2.53 ± 0.59 and 3.24 ± 0.58.
Turning to YKCSDCGKTFKQSSNLGQHQRIHT [ZNF232], the protein stability index reads like this: under setting [1], 4.22 ± 0.18; under setting [2], 4.3 ± 0.45.
On the same counts, the results for YLTEGLLQFTILLSLIGVRVDVDT [NFE2L1] are 2.66 ± 0.15 and 3.25 ± 0.35.
Turning to YMIHEPEPHILLFRRPLPKKPKK [CKS1B], the protein stability index was 2.55 ± 0.23 (treatment: DMSO, c terminus: native) and 2.99 ± 0.5 (treatment: MLN4924 1 uM, 8 h, c terminus: native).
In turn, YQLLATHVPTVWAIDQYRVCQEVL [RHOBTB1] registered a protein stability index under setting [1] of 2.61 ± 0.59 and a protein stability index under setting [2] of 2.38 ± 0.47.
For YSHEVSLTADSRKSHLIFPQPNYA [PCDHGA10] the same measures were 2.79 ± 0.48 and 2.74 ± 0.29.
For YSKTFQRSNVDFLETPELTSTMLV [NECAB1] the same measures were 2.18 ± 0.37 and 2.39 ± 0.35.
On the same counts, the results for YSLAEDTIQGVPLSSYISINSDTG [PCDHGA10] are 3.53 ± 0.2 and 3.47 ± 0.28.
Take YTKLPSSLQSTGKCLLYCNGVLEP [SLC25A39]: the protein stability index is 2.64 ± 0.62 under setting [1] and 2.23 ± 0.35 under setting [2].
For YTVKDKATGEVLGQFYLDLYPREG [NLN] the same measures were 3.1 ± 0.69 and 2.8 ± 0.77.
For the sequence YYSVETVTLLVALKVRYRERITIL [PPP2CA], the protein stability index reads like this: under setting [1], 2.63 ± 0.69; under setting [2], 2.56 ± 0.58.
